Laboratory results reported in patent publication US20190064166.

System: PAPPA2 (pappalysin-2), full-length urinary protein from vAKI patients

**Q.** With Cathepsin D as the substance, how does the “digestion of urinary PAPPA2, loss of PAPPA2 immunoreactivity on immunoblot” value read?
**A.** the addition of cathepsin D to vAKI samples digested PAPPA2
